Results taken from publication PMC6750902.
Blank lines part the entries; values can stand above or below the molecule they belong to.

Assays:
[1] = target: Neisseria meningitidis Cas9 (NmeCas9), full length (Neisseria meningitidis) (UniProt C9X1G5); assay: SEC + other: quantitative SDS-PAGE against standards
[2] = target: Anti-CRISPR protein AcrIIC2; assay: AUC
NmeCas9 = target: T1, NmeCas9 (Neisseria meningitidis, UniProt C9X1G5 1-1082); assay: DRaCALA
T1 sequence: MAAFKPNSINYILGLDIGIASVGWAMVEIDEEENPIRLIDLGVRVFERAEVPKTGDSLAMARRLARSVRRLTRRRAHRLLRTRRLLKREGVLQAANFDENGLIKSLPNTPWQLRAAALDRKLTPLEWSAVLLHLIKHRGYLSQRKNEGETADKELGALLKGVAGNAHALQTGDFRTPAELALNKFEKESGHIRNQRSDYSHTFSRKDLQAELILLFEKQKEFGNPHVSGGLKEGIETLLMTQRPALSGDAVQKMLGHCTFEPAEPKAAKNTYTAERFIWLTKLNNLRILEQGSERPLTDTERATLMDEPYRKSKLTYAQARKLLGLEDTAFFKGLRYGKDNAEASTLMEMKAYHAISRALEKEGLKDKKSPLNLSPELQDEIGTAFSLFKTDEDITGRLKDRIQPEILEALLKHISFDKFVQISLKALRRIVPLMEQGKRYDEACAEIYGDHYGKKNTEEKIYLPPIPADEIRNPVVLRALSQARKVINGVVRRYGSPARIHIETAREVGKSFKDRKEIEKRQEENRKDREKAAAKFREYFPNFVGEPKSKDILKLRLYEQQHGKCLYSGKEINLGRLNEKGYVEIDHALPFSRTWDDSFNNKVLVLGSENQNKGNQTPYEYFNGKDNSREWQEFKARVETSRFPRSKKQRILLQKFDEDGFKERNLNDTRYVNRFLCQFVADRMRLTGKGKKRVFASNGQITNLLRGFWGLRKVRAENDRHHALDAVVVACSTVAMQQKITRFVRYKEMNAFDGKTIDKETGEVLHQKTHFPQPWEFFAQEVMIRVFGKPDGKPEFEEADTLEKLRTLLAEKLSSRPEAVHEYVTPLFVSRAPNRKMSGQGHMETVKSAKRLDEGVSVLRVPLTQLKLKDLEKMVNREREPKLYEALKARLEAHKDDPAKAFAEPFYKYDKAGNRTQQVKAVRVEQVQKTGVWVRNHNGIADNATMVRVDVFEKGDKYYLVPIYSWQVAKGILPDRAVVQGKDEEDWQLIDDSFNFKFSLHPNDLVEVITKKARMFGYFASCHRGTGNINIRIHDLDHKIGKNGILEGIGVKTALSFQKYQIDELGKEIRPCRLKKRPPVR

stoichiometry N (AcrIIC3 per Cas9 (printed as 2:2)) [1]: 1
Molecule: Anti-CRISPR protein AcrIIC3 (natural protein)

stoichiometry N [2]: 2
Molecule: Anti-CRISPR protein AcrIIC2 (natural protein)

B1: NmeCas9 sgRNA, 94 nt (binding assay) (structured_RNA)
RNA: GGCUCCUCAGAUGUAGUAUUCAGAGUUGUAGCUCCCUUUCUGAAAAGAACCGUUGCUACAAUAAGGCCGUCUGAAAAGAUGUGCCGCAACGCUC
Kd (NmeCas9): 1.66 nM
